The supplement of paper PMC7877785
± gives the uncertainty stated by the source.

Assay: self-splicing fitness, log relative to wild type (ln ratio); higher = more splicing; Tetrahymena group I intron in knt gene, E. coli kanamycin selection, DiMSum; sequences stand for … in CUCUCU…GGAGGGAAAAGUUAUCAGGCAUGCACCUGGUAGCUAGUCUUUAAACCAAUAGAUUGCAUCGGUUUAAAAGGCAAGACCGUCAAAUUGCGGGAAAGGGGUCAACAGCCGUUCAGUACCAAGUCUCAGGGGAAACUUUGAGAUGGCCUUGCAAAGGGUAUGGUAAUAAGCUGACGGACAUGGUCCUAACCACGCAGCCAAGUCCUAAGUCAACAGAUCUUCUGUUGAUAUGGAUGCAGUUCACAGACUAAAUGUCGGUCGGGGAAGAUGUAUUCUUCUCAUAAGAUAUAGUCGGACCUCUCCUUAAUGGGAGCUAGCGGAUGAAGUGAUGCAACACUGGAGCCGCUGGGAACUAAUUUGUAUGCGAAAGUAUAUUGAUUAGUUUUGGAGUACUCGUGGUCG
In short: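 The eight P1ex-region nucleotides of an intron in the knt kanamycin-resistance gene on pET-22b(+) were all randomised and the library put into E. coli BL21(DE3). Six replicate transformations were grown overnight at 37°C or 30°C on LB agar with or without 25 μg/mL kanamycin, together with 100 μg/mL carbenicillin, 50 μM IPTG and 0.2% rhamnose. Colonies were pooled and amplicon-sequenced on an Illumina HiSeq 2500. Fitness from DiMSum is the error-weighted combination of wild-type-normalised replicate fold changes, kanamycin over none.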

Sequence | self-splicing fitness (ln) (30 °C) | self-splicing fitness (ln) (37 °C)
AGAUAGCAAUAUUACGCACC | 0.321 ± 0.21 | 0.267 ± 0.34
AGAUAGCAAUAUUACGCACG | -1.13 ± 0.14 | -0.355 ± 0.12
AGAUAGCAAUAUUACGCCCU | -0.337 ± 0.19 | 0.138 ± 0.21
AGAUAGCAAUAUUACGCCUC | -3.23 ± 0.26 | -2.26 ± 0.29
AGAUAGCAAUAUUACGCGCU | -2.31 ± 0.12 | -1.44 ± 0.14
AGAUAGCAAUAUUACGCUCA | -0.765 ± 0.087 | -0.082 ± 0.11
AGAUAGCAAUAUUACGCUUA | -0.901 ± 0.15 | -1.08 ± 0.13
AGAUAGCAAUAUUACGCUUU | -0.847 ± 0.11 | -1.2 ± 0.16
AGAUAGCAAUAUUACGGCCG | -0.583 ± 0.13 | -0.128 ± 0.23
AGAUAGCAAUAUUACGGGGG | -3.43 ± 0.28 | -2.15 ± 0.29
AGAUAGCAAUAUUACGGGUC | -3.73 ± 0.25 | -2.36 ± 0.25
AGAUAGCAAUAUUACGGUGC | -4.21 ± 0.31 | -0.624 ± 0.15
AGAUAGCAAUAUUACGUCUG | -0.398 ± 0.062 | -0.143 ± 0.076
AGAUAGCAAUAUUACGUGAC | -3.44 ± 0.23 | -2.71 ± 0.48
AGAUAGCAAUAUUACGUUGG | -4.65 ± 0.46 | -2.57 ± 0.2
AGCAAGCAAUAUUACGAAAU | -2.42 ± 0.098 | -1.51 ± 0.12
AGCAAGCAAUAUUACGAACG | -0.526 ± 0.083 | -0.449 ± 0.1
AGCAAGCAAUAUUACGAAUA | -2.74 ± 0.26 | -0.872 ± 0.16
AGCAAGCAAUAUUACGACUC | -1.12 ± 0.072 | -0.865 ± 0.08
AGCAAGCAAUAUUACGACUG | -0.672 ± 0.077 | -0.735 ± 0.1
AGCAAGCAAUAUUACGAGAA |  | -2.27 ± 0.4
AGCAAGCAAUAUUACGAGGG | -3.29 ± 0.1 | -2.58 ± 0.15
AGCAAGCAAUAUUACGAGGU | -3.87 ± 0.42 | -1.96 ± 0.2
AGCAAGCAAUAUUACGAGUU | -2.98 ± 0.16 | -1.55 ± 0.16

Sequence | self-splicing fitness (ln) (30 °C) | self-splicing fitness (ln) (37 °C)
AGCAAGCAAUAUUACGAUCG | 0.481 ± 0.09 | -0.163 ± 0.12
AGCAAGCAAUAUUACGAUUU | -0.00633 ± 0.054 | 0.677 ± 0.08
AGCAAGCAAUAUUACGGAUA | -3.3 ± 0.28 | -1.77 ± 0.19
AGCAAGCAAUAUUACGGGAC | -3.76 ± 0.33 | -2.24 ± 0.29
AGCAAGCAAUAUUACGGGAU | -2.79 ± 0.098 | -1.15 ± 0.081
AGCAAGCAAUAUUACGGGGC | -3.92 ± 0.29 | -2.89 ± 0.3
AGCAAGCAAUAUUACGGGUA | -1.32 ± 0.081 | -0.594 ± 0.09
AGCAAGCAAUAUUACGGUCU | -0.739 ± 0.069 | 0.0318 ± 0.085
AGCAAGCAAUAUUACGGUUA | -0.707 ± 0.08 | 0.127 ± 0.08
AGCAAGCAAUAUUACGGUUG | -3.23 ± 0.17 | -1.32 ± 0.16
AGCAAGCAAUAUUACGUAAC | -5.08 ± 0.25 | -2.09 ± 0.14
AGCAAGCAAUAUUACGUAGU | -3.18 ± 0.18 | -2.14 ± 0.19
AGCAAGCAAUAUUACGUCCA | -1.62 ± 0.12 | 0.0058 ± 0.17
AGCAAGCAAUAUUACGUGCC |  | -1.63 ± 0.27
AGCAAGCAAUAUUACGUGCG | -1.25 ± 0.069 | -1.05 ± 0.087
AGCAAGCAAUAUUACGUGGA | -2.85 ± 0.15 | -1.85 ± 0.12
AGCAAGCAAUAUUACGUUCC | -1.21 ± 0.12 | -0.544 ± 0.13
AGCCAGCAAUAUUACGAAAG | -3.13 ± 0.22 | -3.22 ± 0.38
AGCCAGCAAUAUUACGACAG | -3.67 ± 0.27 | -2.74 ± 0.27
AGCCAGCAAUAUUACGAGAG | -4.55 ± 0.27 | -3.02 ± 0.21
AGCCAGCAAUAUUACGAGCG | -1.36 ± 0.095 | -0.0302 ± 0.13
AGCCAGCAAUAUUACGCACU | -0.425 ± 0.094 | -0.259 ± 0.12
AGCCAGCAAUAUUACGCUCU | -1.94 ± 0.1 | -0.912 ± 0.13
AGCCAGCAAUAUUACGCUGA | -2.75 ± 0.16 | -1.87 ± 0.15
